We go through two molecules from US20220348679A1 (MYTHIC THERAPEUTICS, published 2022).

The target in this assay is T1, LRRC15 on U-87 MG (LRRC15+) cells (UniProt Q8TF66 22-581, limits assumed).
T1 construct: whole, on cells; also called cell surface LRRC15
T1 sequence (looked up): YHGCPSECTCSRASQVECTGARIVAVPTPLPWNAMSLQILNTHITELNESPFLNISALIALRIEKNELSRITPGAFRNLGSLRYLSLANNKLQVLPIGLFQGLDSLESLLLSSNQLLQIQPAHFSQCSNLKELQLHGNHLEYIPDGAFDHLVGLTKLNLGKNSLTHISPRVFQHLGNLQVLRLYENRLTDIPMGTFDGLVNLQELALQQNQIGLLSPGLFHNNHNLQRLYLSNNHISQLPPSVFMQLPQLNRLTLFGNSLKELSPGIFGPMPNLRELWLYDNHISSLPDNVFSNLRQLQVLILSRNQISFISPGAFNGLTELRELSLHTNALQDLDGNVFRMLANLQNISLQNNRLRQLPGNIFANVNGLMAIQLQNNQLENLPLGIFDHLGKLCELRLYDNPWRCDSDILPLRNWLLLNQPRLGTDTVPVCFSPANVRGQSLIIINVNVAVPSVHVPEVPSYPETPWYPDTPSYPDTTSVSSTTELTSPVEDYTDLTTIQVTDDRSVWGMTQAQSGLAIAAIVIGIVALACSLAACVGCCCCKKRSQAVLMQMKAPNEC
In words: flow cytometry on U-87 MG (LRRC15+) cells; the text of Example 22 calls the fitted value a dissociation constant KD. As for the experimental part:
Binding affinity of selected LRRC15 pH engineered antibody variants from Example 9 were measured on U-87 MG (LRRC15+) cells. 100,000 U-87 MG cells (ATCC HTB-14) were seeded per well in a 96 well deep well plate. Samrotamab and a pH engineered antibody variant were serially diluted at a 1:3 dilution in ice cold FC buffer (phosphate buffered saline (PBS), pH 7.4+2 mM ethylenediaminetetraacetic acid (EDTA)+2% (v/v) HI FBS). The plates were spun at 2,000 RPM for 2 minutes, the supernatant was removed, and 100 μL of diluted antibody was added to each well with final concentration ranging from 60 nM to 1 pM and incubated for 2 hours at 4° C. Post incubation, the cells were spun at 2000 rpm for 2 min and supernatant was discarded. Cells were washed twice with 500 μL of ice-cold FC buffer and resuspended with 100 μL of FC buffer. The cells were then transferred from the deep well plate to 96 well round bottom plate, spun at 2000 rpm for 2 min and incubated with 100 μL of 10 μg/mL Alexa Fluor 488 conjugated goat anti-human IgG secondary antibody (ThermoFisher Scientific, A11013) for 30 min. Post incubation, cells were washed with FC buffer and resuspended in 100 μL of FC buffer to read on a BD Accuri C6 flow cytometer. Binding affinity was measured as a dissociation constant KD by GraphPad Prism assuming Michaelis-Menten binding kinetics.

Positions count from the first letter of the chain named.

B1: samrotamab (antibody, V domains shown)
VH: EVQLVQSGAEVKKPGASVKVSCKASGYKFSSYWIEWVKQAPGQGLEWIGEILPGSDTTNYNEKFKDRATFTSDTSINTAYMELSRLRSDDTAVYYCARDRGNYRAWFGYWGQGTLVTVSS
VL: DIQMTQSPSSLSASVGDRVTITCRASQDISNYLNWYQQKPGGAVKFLIYYTSRLHSGVPSRFSGSGSGTDYTLTISSLQPEDFATYFCQQGEALPWTFGGGTKVEIK
notes: IgG; also called MYT0963
The IC50 is the concentration that inhibits the measured activity by half. High values mean a need for much substance, low ones inhibition by little substance. For the molecule B1, the IC50 was 0.228 nM.

B2: MYT0971 (antibody, V domains shown)
VH: B1 VH with W33H
VL: B1 VL
notes: IgG
Molecule B2 yielded a concentration for half-maximal inhibition (IC50) of 0.484 nM.
